# Reference: PMC9482650, “Quantitative fragmentomics allow affinity mapping of interactomes” (Nature Communications, 2022)
# Legend:
# Experiment in all cases: holdup assay
# Parameters in all cases: key: below the threshold = too weak to quantify, mostly under pKd 3.1 to 4
# [1] = target: AHNAK1, Q09666
# [2] = target: T1, APBA1_1, Q02410
# T1 sequence (Q02410 651-752, limits assumed, looked up): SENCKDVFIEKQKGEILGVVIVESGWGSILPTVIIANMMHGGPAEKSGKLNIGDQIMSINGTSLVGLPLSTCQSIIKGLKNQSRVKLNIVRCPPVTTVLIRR
# [3] = target: T2, APBA2_2, Q99767
# T2 sequence (Q99767 654-744, limits assumed, looked up): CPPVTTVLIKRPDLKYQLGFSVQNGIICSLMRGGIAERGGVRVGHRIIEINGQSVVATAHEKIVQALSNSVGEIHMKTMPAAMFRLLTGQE
# [4] = target: T3, ARHGEF11, O15085
# T3 sequence (O15085 42-136, limits assumed, looked up): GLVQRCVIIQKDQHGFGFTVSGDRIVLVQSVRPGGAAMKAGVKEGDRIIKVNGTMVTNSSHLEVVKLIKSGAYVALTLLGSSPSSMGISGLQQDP
# [5] = target: T4, CARD11, Q9BXL7
# T4 sequence (Q9BXL7 662-765, limits assumed, looked up): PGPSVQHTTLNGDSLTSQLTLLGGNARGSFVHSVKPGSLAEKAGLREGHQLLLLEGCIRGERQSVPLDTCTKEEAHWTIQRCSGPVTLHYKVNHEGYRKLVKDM
# [6] = target: DLG1_1, Q12959
# [7] = target: DLG1_3, Q12959
# [8] = target: DLG2_3, Q15700
# [9] = target: T5, DLG3_1, Q92796
# T5 sequence (Q92796 125-227, limits assumed, looked up): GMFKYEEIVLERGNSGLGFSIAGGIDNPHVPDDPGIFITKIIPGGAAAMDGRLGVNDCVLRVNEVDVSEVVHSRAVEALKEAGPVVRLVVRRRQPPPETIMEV
# [10] = target: DLG4_2, P78352
# [11] = target: T6, GRIP1_2, Q9Y3R0
# T6 sequence (Q9Y3R0 145-248, limits assumed, looked up): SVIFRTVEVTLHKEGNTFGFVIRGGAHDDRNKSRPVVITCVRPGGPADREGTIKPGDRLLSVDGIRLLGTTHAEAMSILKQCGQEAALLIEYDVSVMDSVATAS
# [12] = target: Inadl_10, Q8NI35
# [13] = target: LAP2, Q96RT1
# [14] = target: LNX1_2, Q8TBB1
# [15] = target: T7, LNX2_2, Q8N448
# T7 sequence (Q8N448 334-432, limits assumed, looked up): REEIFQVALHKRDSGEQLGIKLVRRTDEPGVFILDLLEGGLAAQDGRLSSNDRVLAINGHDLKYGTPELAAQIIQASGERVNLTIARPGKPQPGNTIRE
# [16] = target: MAGI2_4, Q86UL8
# [17] = target: MAGI3_2, Q5TCQ9
# [18] = target: T8, MPDZ_5, O75970
# T8 sequence (O75970 695-796, limits assumed, looked up): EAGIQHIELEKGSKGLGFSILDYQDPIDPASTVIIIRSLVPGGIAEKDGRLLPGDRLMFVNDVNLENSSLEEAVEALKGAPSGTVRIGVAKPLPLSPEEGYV
# [19] = target: T9, MPP2, Q14168
# T9 sequence (Q14168 180-250, limits assumed, looked up): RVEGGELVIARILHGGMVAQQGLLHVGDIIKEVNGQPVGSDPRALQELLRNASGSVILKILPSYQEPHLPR
# [20] = target: PDZRN4_1, Q6ZMN7
# [21] = target: PICK1, Q9NRD5
# [22] = target: T10, RADIL, Q96JH8
# T10 sequence (Q96JH8 971-1071, limits assumed, looked up): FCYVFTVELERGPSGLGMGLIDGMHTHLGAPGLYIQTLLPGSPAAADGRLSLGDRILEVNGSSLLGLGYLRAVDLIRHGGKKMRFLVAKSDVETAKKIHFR
# [23] = target: T11, SNTB1, Q13884
# T11 sequence (Q13884 107-205, limits assumed, looked up): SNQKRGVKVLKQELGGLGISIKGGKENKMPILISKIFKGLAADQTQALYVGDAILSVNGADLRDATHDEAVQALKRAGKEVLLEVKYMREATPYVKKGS
# [24] = target: TJP1_2, Q07157
# [25] = target: TJP2_1, Q9UDY2
# [26] = target: T12, TX1BP3, O14907
# T12 sequence (O14907 10-122, limits assumed, looked up): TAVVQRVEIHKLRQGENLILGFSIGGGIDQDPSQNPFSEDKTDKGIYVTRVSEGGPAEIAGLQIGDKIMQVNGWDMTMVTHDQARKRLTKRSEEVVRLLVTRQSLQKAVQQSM
# [27] = plain residues with an end cap or a label only (N-terminal biotin on a linker: ado-ado)
# [28] = plain residues with an end cap or a label only (N-terminal biotin on a linker: (peg)3)
# Chain of TJP1_2, Q07157 (Q07157 181-274): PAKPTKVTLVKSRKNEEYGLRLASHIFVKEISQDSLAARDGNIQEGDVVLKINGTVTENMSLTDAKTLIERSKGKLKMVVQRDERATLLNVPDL
# Chain of LAP2, Q96RT1 (Q96RT1 other isoform, or with tags, fused parts or gaps): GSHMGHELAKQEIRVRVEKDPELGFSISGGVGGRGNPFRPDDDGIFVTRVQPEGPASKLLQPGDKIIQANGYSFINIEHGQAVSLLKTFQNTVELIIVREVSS
# Chain of AHNAK1, Q09666 (Q09666 4-100): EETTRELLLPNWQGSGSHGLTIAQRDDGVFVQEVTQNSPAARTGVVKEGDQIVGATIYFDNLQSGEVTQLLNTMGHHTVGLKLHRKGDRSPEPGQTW
# Chain of DLG4_2, P78352 (P78352 155-259): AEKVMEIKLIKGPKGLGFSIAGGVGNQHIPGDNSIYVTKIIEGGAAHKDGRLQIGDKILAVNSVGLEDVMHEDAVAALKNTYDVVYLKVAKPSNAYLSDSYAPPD
# Chain of LNX1_2, Q8TBB1 (Q8TBB1 371-470): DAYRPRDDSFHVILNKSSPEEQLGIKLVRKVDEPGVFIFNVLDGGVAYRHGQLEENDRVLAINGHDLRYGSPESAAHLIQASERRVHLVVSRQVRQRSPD
# Chain of TJP2_1, Q9UDY2 (Q9UDY2 24-128): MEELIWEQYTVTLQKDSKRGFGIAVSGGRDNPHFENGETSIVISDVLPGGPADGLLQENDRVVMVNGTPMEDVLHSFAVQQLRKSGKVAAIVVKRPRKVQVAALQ
# Chain of MAGI3_2, Q5TCQ9 (Q5TCQ9 398-503): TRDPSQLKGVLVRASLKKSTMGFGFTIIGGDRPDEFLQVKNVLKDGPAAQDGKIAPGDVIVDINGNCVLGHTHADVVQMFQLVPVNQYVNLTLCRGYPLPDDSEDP
# Chain of PICK1, Q9NRD5 (Q9NRD5 17-115): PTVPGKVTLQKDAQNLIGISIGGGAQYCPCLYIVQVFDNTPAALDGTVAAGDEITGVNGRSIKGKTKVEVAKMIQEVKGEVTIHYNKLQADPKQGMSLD
# Chain of Inadl_10, Q8NI35 (Q8NI35 1673-1763): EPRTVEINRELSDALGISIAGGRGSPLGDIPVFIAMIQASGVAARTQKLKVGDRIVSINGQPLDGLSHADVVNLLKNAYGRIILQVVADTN
# Chain of PDZRN4_1, Q6ZMN7 (Q6ZMN7 213-318): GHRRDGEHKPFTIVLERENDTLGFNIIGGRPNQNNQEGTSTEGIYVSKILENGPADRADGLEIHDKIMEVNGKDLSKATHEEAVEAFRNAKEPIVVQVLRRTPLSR
# Chain of MAGI2_4, Q86UL8 (Q86UL8 772-865): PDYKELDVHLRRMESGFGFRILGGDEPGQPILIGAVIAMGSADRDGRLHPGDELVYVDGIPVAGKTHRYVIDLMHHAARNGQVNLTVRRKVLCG
binder,measurement,setting,value
"QKNRKAQEDL [CES3, Q6UWW8]",pKd,[1]; [27],below the threshold
same,pKd,[2]; [27],below the threshold
same,pKd,[3]; [27],below the threshold
same,pKd,[4]; [27],below the threshold
same,pKd,[5]; [27],3.5
same,pKd,[6]; [27],below the threshold
same,pKd,[7]; [27],below the threshold
same,pKd,[8]; [27],3.65
same,pKd,[9]; [27],below the threshold
same,pKd,[10]; [27],below the threshold
same,pKd,[11]; [27],below the threshold
same,pKd,[12]; [27],below the threshold
same,pKd,[13]; [27],below the threshold
same,pKd,[14]; [27],below the threshold
same,pKd,[15]; [27],below the threshold
same,pKd,[16]; [27],below the threshold
same,pKd,[17]; [27],below the threshold
same,pKd,[18]; [27],below the threshold
same,pKd,[19]; [27],below the threshold
same,pKd,[20]; [27],below the threshold
same,pKd,[21]; [27],4
same,pKd,[22]; [27],below the threshold
same,pKd,[23]; [27],below the threshold
same,pKd,[24]; [27],below the threshold
same,pKd,[25]; [27],below the threshold
same,pKd,[26]; [27],below the threshold
"PKRSFIESNV [TANC1, Q9C0D5]",pKd,[1]; [27],below the threshold
same,pKd,[2]; [27],below the threshold
same,pKd,[3]; [27],below the threshold
same,pKd,[4]; [27],3.55
same,pKd,[5]; [27],below the threshold
same,pKd,[6]; [27],4.69
same,pKd,[7]; [27],4.32
same,pKd,[8]; [27],4.28
same,pKd,[9]; [27],4.15
same,pKd,[10]; [27],5.04
same,pKd,[11]; [27],below the threshold
same,pKd,[12]; [27],below the threshold
same,pKd,[13]; [27],5.27
same,pKd,[14]; [27],below the threshold
same,pKd,[15]; [27],below the threshold
same,pKd,[16]; [27],below the threshold
same,pKd,[17]; [27],5.24
same,pKd,[18]; [27],below the threshold
same,pKd,[19]; [27],below the threshold
same,pKd,[20]; [27],3.82
same,pKd,[21]; [27],4.14
same,pKd,[22]; [27],3.67
same,pKd,[23]; [27],5
same,pKd,[24]; [27],below the threshold
same,pKd,[25]; [27],below the threshold
same,pKd,[26]; [27],5.72
"DDEDRLVIEI [ZNF831, Q5JPB2]",pKd,[1]; [27],below the threshold
same,pKd,[2]; [27],below the threshold
same,pKd,[3]; [27],below the threshold
same,pKd,[4]; [27],4.07
same,pKd,[5]; [27],below the threshold
same,pKd,[6]; [27],below the threshold
same,pKd,[7]; [27],below the threshold
same,pKd,[8]; [27],3.65
same,pKd,[9]; [27],below the threshold
same,pKd,[10]; [27],below the threshold
same,pKd,[11]; [27],below the threshold
same,pKd,[12]; [27],below the threshold
same,pKd,[13]; [27],below the threshold
same,pKd,[14]; [27],below the threshold
same,pKd,[15]; [27],4.76
same,pKd,[16]; [27],below the threshold
same,pKd,[17]; [27],below the threshold
same,pKd,[18]; [27],below the threshold
same,pKd,[19]; [27],below the threshold
same,pKd,[20]; [27],below the threshold
same,pKd,[21]; [27],below the threshold
same,pKd,[22]; [27],4.02
same,pKd,[23]; [27],below the threshold
same,pKd,[24]; [27],below the threshold
same,pKd,[25]; [27],below the threshold
same,pKd,[26]; [27],below the threshold
"QMNQTLPVQV [EPHB3, P54753]",pKd,[1]; [27],below the threshold
same,pKd,[2]; [27],below the threshold
same,pKd,[3]; [27],below the threshold
same,pKd,[4]; [27],4.36
same,pKd,[5]; [27],below the threshold
same,pKd,[6]; [27],below the threshold
same,pKd,[7]; [27],3.76
same,pKd,[8]; [27],below the threshold
same,pKd,[9]; [27],below the threshold
same,pKd,[10]; [27],3.66
same,pKd,[11]; [27],3.58
same,pKd,[12]; [27],below the threshold
same,pKd,[13]; [27],below the threshold
same,pKd,[14]; [27],4.53
same,pKd,[15]; [27],5.12
same,pKd,[16]; [27],3.7
same,pKd,[17]; [27],below the threshold
same,pKd,[18]; [27],3.84
same,pKd,[19]; [27],below the threshold
same,pKd,[20]; [27],below the threshold
same,pKd,[21]; [27],4.35
same,pKd,[22]; [27],4.44
same,pKd,[23]; [27],below the threshold
same,pKd,[24]; [27],3.72
same,pKd,[25]; [27],below the threshold
same,pKd,[26]; [27],below the threshold
"NLNSSEGVPDLLV [SARS-CoV-E, P59637]",pKd,[1]; [28],below the threshold
same,pKd,[2]; [28],below the threshold
same,pKd,[3]; [28],below the threshold
same,pKd,[4]; [28],below the threshold
same,pKd,[5]; [28],below the threshold
same,pKd,[6]; [28],below the threshold
same,pKd,[7]; [28],below the threshold
same,pKd,[8]; [28],below the threshold
same,pKd,[9]; [28],below the threshold
same,pKd,[10]; [28],below the threshold
same,pKd,[11]; [28],below the threshold
same,pKd,[12]; [28],below the threshold
same,pKd,[13]; [28],below the threshold
same,pKd,[14]; [28],4.06
same,pKd,[15]; [28],4.24
same,pKd,[16]; [28],below the threshold
same,pKd,[17]; [28],below the threshold
same,pKd,[18]; [28],below the threshold
same,pKd,[19]; [28],below the threshold
same,pKd,[20]; [28],below the threshold
same,pKd,[21]; [28],below the threshold
same,pKd,[22]; [28],below the threshold
same,pKd,[23]; [28],below the threshold
same,pKd,[24]; [28],5.18
same,pKd,[25]; [28],below the threshold
same,pKd,[26]; [28],below the threshold
